B1: Ataxin-1 (Homo sapiens), P54253 (parent)
chain: MKSNQERSNECLPPKKREIPATSRSSEEKAPTLPSDNHRVEGTAWLPGNPGGRGHGGGRHGPAGTSVELGLQQGIGLHKALSTGLDYSPPSAPRSVPVATTLPAAYATPQPGTPVSPVQYAHLPHTFQFIGSSQYSGTYASFIPSQLIPPTANPVTSAVASAAGATTPSQRSQLEAYSTLLANMGSLSQTPGHKAEQQQQQQQQQQQQHQHQQQQQQQQQQQQQQHLSRAPGLITPGSPPPAQQNQYVHISSSPQNTGRTASPPAIPVHLHPHQTMIPHTLTLGPPSQVVMQYADSGSHFVPREATKKAESSRLQQAIQAKEVLNGEMEKSRRYGAPSSADLGLGKAGGKSVPHPYESRHVVVHPSPSDYSSRDPSGVRASVMVLPNSNTPAADLEVQQATHREASPSTLNDKSGLHLGKPGHRSYALSPHTVIQTTHSASEPLPVGLPATAFYAGTQPPVIGYLSGQQQAITYAGSLPQHLVIPGTQPLLIPVGSTDMEASGAAPAIVTSSPQFAAVPHTFVTTALPKSENFNPEALVTQAAYPAMVQAQIHLPVVQSVASPAAAPPTLPPYFMKGSIIQLANGELKKVEDLKTEDFIQSAEISNDLKIDSSTVERIEDSHSPGVAVIQFAVGEHRAQVSVEVLVEYPFFVFGQGWSSCCPERTSQLFDLPCSKLSVGDVCISLTLKNLKNGSVKKGQPVDPASVLLKHSKADGLAGSRHRYAEQENGINQGSAQMLSENGELKFPEKMGLPAAPFLTKIEPSKPAATRKRRWSAPESRKLEKSEDEPPLTLPKPSLIPQEVKICIEGRSNVGK

Variants of: B1
Conditions: with wdfy3_human WDFY3, Q8IZQ1
Sequence of wdfy3_human WDFY3, Q8IZQ1 (Q8IZQ1 whole entry): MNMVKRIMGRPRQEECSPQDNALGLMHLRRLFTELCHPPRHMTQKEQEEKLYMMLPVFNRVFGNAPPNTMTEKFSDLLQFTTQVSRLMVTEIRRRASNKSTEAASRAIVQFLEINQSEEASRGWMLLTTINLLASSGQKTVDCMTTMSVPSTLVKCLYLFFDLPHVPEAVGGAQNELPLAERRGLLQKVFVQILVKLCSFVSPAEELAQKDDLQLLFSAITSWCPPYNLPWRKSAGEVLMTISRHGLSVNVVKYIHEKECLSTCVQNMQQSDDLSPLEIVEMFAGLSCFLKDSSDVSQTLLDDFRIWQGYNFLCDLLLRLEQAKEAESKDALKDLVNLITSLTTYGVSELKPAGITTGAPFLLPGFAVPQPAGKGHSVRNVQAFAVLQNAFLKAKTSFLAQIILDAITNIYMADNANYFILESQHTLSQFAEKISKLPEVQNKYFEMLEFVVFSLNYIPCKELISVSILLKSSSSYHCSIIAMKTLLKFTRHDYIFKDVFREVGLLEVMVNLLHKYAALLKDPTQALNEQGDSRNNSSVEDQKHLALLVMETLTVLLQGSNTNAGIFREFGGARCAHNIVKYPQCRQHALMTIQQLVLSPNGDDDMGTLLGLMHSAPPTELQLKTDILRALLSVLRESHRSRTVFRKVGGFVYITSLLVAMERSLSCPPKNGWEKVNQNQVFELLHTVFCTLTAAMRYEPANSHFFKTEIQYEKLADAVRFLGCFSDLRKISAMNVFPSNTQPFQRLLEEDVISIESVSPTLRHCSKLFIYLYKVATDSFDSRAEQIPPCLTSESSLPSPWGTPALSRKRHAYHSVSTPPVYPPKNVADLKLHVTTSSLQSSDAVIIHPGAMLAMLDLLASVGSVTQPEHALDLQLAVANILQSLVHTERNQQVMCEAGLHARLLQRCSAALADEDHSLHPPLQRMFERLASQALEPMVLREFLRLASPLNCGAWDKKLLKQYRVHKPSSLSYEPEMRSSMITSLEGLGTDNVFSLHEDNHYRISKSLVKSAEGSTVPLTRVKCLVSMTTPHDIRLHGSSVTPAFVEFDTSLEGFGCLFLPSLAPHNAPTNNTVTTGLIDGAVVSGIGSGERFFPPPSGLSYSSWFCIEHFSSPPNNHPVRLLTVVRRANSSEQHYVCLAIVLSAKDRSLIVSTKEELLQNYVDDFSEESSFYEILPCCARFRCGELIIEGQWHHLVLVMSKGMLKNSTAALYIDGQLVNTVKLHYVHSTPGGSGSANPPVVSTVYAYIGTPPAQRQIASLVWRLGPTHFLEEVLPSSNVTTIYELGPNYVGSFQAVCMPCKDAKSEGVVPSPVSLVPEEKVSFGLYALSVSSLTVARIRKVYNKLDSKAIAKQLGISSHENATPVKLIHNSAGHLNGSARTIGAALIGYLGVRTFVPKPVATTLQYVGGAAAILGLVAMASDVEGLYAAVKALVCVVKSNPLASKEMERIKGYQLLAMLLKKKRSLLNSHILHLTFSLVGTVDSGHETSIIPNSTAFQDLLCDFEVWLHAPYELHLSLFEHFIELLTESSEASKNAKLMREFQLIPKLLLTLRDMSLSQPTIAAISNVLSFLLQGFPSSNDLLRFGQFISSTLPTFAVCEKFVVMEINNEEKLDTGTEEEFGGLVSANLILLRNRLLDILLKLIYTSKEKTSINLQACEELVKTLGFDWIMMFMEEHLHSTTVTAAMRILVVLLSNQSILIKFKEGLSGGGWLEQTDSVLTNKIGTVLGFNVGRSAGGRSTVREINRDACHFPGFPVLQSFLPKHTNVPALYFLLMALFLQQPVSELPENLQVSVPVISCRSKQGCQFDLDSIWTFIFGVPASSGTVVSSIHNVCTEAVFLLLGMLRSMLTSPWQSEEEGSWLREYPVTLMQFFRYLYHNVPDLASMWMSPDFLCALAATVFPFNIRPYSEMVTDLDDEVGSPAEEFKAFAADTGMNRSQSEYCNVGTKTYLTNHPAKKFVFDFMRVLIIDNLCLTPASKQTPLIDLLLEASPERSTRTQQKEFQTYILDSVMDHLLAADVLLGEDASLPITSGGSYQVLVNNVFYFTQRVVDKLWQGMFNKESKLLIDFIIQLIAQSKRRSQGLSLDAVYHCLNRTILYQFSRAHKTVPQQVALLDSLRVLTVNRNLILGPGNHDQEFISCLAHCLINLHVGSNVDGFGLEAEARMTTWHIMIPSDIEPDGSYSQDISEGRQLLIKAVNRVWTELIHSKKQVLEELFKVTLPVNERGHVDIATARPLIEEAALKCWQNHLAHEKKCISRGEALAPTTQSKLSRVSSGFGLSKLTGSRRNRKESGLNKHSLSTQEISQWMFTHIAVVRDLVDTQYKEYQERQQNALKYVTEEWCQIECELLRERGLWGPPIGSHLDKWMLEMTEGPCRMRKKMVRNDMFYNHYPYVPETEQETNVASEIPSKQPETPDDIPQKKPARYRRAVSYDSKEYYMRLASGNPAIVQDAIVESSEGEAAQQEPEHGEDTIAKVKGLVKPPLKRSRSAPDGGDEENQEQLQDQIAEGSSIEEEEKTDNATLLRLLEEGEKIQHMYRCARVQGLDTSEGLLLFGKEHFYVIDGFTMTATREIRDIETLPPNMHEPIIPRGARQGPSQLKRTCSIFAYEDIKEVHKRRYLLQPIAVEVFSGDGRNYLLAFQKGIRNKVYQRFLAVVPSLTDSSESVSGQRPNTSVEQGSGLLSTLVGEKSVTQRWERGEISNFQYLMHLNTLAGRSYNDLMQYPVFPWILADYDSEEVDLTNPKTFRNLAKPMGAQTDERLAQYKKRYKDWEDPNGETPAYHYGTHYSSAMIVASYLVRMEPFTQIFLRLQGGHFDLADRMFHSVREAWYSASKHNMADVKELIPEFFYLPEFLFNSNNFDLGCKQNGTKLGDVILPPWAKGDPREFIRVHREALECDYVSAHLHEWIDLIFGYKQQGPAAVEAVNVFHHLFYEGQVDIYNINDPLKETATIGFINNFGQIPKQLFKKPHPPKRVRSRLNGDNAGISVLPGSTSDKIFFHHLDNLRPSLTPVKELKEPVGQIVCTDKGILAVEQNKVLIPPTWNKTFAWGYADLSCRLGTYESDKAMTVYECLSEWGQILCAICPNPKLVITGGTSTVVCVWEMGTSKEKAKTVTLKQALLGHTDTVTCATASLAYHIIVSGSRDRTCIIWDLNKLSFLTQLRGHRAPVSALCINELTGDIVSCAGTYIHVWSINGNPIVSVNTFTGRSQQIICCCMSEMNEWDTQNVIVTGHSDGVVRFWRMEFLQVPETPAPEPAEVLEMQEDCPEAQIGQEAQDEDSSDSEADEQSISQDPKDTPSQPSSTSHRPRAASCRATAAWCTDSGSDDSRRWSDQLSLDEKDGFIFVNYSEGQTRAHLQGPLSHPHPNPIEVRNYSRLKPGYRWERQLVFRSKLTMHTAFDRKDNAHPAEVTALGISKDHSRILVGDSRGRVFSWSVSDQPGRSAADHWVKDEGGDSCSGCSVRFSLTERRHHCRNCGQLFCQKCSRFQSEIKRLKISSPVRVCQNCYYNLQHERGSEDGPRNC

| Variant | effect of a mutation on the interaction |
| --- | --- |
| K771T | disrupting interaction |
